Data on 2 substances can be found in US20200157151A1, “PEPTIDE COMPOUNDS, CONJUGATE COMPOUNDS AND USES THEREOF FOR TREATING INFLAMMATORY DISEASES” (TRANSFERT PLUS, S.E.C., priority 2017, published 2020).

This assay concerns the target Human recombinant Sortilin chimera protein from R&D Systems (#3154-ST) (human) (UniProt Q99523). Kind of assay: SPR (Biacore), Sortilin immobilized on CM5 chip, ligand injected.

Sequence of Human recombinant Sortilin chimera protein from R&D Systems (#3154-ST) (human) (Q99523 78-755, change not shown): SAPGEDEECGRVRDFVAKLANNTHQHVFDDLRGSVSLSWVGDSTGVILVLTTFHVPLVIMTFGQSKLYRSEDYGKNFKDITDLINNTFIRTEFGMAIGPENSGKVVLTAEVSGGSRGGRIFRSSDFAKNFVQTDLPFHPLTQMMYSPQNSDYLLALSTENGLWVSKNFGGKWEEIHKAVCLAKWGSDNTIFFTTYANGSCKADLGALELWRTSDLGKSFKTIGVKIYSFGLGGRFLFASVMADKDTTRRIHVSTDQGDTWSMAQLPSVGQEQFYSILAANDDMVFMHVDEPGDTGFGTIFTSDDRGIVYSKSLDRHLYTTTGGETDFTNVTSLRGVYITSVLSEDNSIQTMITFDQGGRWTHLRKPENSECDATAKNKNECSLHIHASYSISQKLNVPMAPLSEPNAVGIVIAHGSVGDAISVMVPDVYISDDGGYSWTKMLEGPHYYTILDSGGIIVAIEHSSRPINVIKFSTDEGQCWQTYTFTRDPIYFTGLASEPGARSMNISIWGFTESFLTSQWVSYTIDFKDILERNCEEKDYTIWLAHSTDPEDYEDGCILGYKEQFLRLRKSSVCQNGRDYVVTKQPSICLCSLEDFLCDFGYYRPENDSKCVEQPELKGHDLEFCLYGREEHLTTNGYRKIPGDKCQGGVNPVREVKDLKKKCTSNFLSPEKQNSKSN

“Neurotensin, P30990 151-163 (peptide; modification not given)”: the Kd came out at 117 nM.

As to “Receptor-Associated Protein (RAP) (ligand)”, the Kd was found to be 4.2 nM.
